In publication PMC4760375, “A dual phosphorylation switch controls 14-3-3-dependent cell surface expression of TASK-1” (Journal of Cell Science, 2016):
Blank lines part the entries; values can stand above or below the molecule they belong to. Non-standard residues stand in square brackets, D forms with d. No end group written: not given here. pS = N[C@@H](COP(=O)(O)O)C(=O)O

Experiments:
14-3-3ε = target: T1, 14-3-3ε (human, UniProt P62258 1-255); assay: fluorescence polarization titration; details: reference: unphosphorylated peptide
T1 chain: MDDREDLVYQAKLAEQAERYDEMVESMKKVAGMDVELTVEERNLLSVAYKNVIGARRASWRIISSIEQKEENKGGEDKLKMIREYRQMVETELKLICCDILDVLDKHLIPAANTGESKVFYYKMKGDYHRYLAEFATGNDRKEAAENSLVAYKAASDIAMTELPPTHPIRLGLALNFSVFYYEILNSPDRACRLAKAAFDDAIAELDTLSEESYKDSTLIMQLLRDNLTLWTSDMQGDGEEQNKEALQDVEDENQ

14-3-3σ = target: T2, 14-3-3σ (human, UniProt P31947 1-248); assay: fluorescence polarization titration; details: reference: unphosphorylated peptide; sites S393
T2 chain: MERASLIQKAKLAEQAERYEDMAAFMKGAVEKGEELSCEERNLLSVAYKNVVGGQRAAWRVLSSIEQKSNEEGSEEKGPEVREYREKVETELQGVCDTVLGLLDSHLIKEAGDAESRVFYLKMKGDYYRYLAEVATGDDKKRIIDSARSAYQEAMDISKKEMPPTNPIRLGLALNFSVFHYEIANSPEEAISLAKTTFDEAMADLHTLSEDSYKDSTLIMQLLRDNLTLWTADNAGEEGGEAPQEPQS

14-3-3η = 14-3-3η (UniProt Q04917); assay: fluorescence polarization titration; details: reference: unphosphorylated peptide; sites S393
14-3-3ζ = 14-3-3ζ (UniProt P63104); assay: fluorescence polarization titration; details: reference: unphosphorylated peptide
14-3-3γ = 14-3-3γ (UniProt P61981); assay: fluorescence polarization titration; details: reference: unphosphorylated peptide
14-3-3β = target: T3, 14-3-3β (human, UniProt P31946 1-246); assay: fluorescence polarization titration; details: reference: unphosphorylated peptide; sites S373
T3 chain: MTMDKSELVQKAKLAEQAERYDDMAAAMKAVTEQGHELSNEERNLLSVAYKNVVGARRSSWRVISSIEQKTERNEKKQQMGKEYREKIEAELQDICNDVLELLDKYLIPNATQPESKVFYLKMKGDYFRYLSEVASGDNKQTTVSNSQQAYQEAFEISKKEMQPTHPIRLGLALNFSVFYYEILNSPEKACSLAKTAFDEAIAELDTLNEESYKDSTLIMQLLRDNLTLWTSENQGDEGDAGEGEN

14-3-3τ = 14-3-3τ (UniProt P27348); assay: fluorescence polarization titration; details: reference: unphosphorylated peptide; sites S373
[1] = target: GST-tagged TASK-3 C-terminal 15 residues fusion protein, phosphorylated with PKA catalytic subunit (human) (UniProt Q9NPC2); assay: SPR; GST fusion protein captured by an anti-GST antibody on an HC1000m chip, phosphorylated on the chip with PKA catalytic subunit; 14-3-3 proteins as analyte; 20°C; 150 mM NaCl, 20 mM HEPES, 0.005% (v/v) Tween 20, pH 7.5; equilibrium binding isotherms
[2] = target: doubly phosphorylated TASK-1 C-terminal fluorescent peptide (pS392 and pS393) (human) (UniProt O14649); assay: fluorescence polarisation; 10 nM fluorescein-labelled peptide titrated with 14-3-3 protein (1 nM to 120 µM in the results, 100 µM to 1 nM in the methods); 20 mM MOPS, 150 mM NaCl, 0.005% (v/v) CHAPS pH 7.0; room temperature; monophasic fit
[3] = target: TASK-1 pS392 C-terminal fluorescent peptide (human) (UniProt O14649); assay: as above
[4] = target: T4, GST-tagged TASK-3 C-terminal 15 residues fusion protein, phosphorylated with PKA catalytic subunit (human, UniProt Q9NPC2 360-374); assay: SPR
T4 chain: {GST}-SFTDHQRLMKRRK[pS]V

[5] = target: T5, TASK-3 pS373 ΔV374 C-terminal fluorescent peptide (human, UniProt Q9NPC2 360-374, ΔV374, also: fluorescein label, position not given here); assay: fluorescence polarisation; 10 nM fluorescein-labelled peptide titrated with 14-3-3 protein (1 nM to 120 µM in the results, 100 µM to 1 nM in the methods); 20 mM MOPS, 150 mM NaCl, 0.005% (v/v) CHAPS pH 7.0; room temperature; monophasic fit; details: both partners purified
T5 construct: TASK-3 (KCNK9), human, C-terminal peptide with phosphorylated S373 but lacking the C-terminal valine V374; ends at pS373; source: synthetic peptide, bought: Peps4Life Sciences
T5 peptide (looked up): SFTDHQRLMKRRK[pS]

binding against the reference (14-3-3ε; sites S393): gained | binding against the reference (14-3-3σ): gained | binding against the reference (14-3-3η): gained | binding against the reference (14-3-3ζ; sites S393): gained | binding against the reference (14-3-3γ; sites S393): gained
Molecule: TASK-1 last 15 amino acids of the C-terminus (from UniProt O14649) pS393 peptide

binding against the reference (14-3-3ε; sites S373): gained | binding against the reference (14-3-3ζ; sites S373): gained | binding against the reference (14-3-3γ; sites S373): gained | binding against the reference (14-3-3β): gained | binding against the reference (14-3-3τ): gained
Molecule: TASK-3 last 15 amino acids of the C-terminus (from UniProt Q9NPC2) pS373 peptide

Kd [1]: 0.045 µM | Kd [2]: 200 µM | Kd [3]: 100 µM
Molecule: 14-3-3γ (from UniProt P61981 1-247) (natural protein)

Kd [4]: 0.15 µM | fold reduction of affinity against the TASK-3 pS373 peptide with V374 [5]: 23 fold | Kd [3]: 100 µM
B1: 14-3-3ε (natural protein, human, UniProt P62258 1-255, looked up)
chain: MDDREDLVYQAKLAEQAERYDEMVESMKKVAGMDVELTVEERNLLSVAYKNVIGARRASWRIISSIEQKEENKGGEDKLKMIREYRQMVETELKLICCDILDVLDKHLIPAANTGESKVFYYKMKGDYHRYLAEFATGNDRKEAAENSLVAYKAASDIAMTELPPTHPIRLGLALNFSVFYYEILNSPDRACRLAKAAFDDAIAELDTLSEESYKDSTLIMQLLRDNLTLWTSDMQGDGEEQNKEALQDVEDENQ
notes: 14-3-3 protein epsilon, human; open reading frame inserted into pMAL2Cx; also called 14-3-3 epsilon
